Experimental data published in patent US20240279345A1, “ALPHA 5 BETA 1 INTEGRIN BINDING AGENTS AND USES THEREOF” (PASITHEA THERAPEUTICS CORP., priority 2021, published 2024).

How the values were obtained:
[1] = target: T1, purified recombinant human α5β1 integrin heterodimer, 6×His tagged (rh-α5β1); Acro Biosystems, cat. no. … (human, UniProt P08648 42-995; P05556 21-728); experiment: BLI (Octet), supernatant mAb on anti-mouse IgG Fc sensor, 20 nM rh-α5β1
T1 construct: bought recombinant heterodimer; also called rh-α5β1-6×His tagged protein; His-tagged-α5β1
Description: Anti-Mouse IgG Fc biosensors were used to load each clone supernatant. Assay steps were as follows: Sensor Check (30s)-->Load Ab (700s)-->Quench (480s)-->Baseline(480s)-->Ab Assoc. (600s)-->Dissoc. (600s).

[2] = target: T1, purified recombinant human α5β1 …; experiment: ELISA, inhibition of rh-α5β1-His binding to coated FN, purified hybridoma mAb
Method: Immulon4 HBX ELISA 96-well plates were coated with FN by incubation overnight at 4° C. with 2.5 μg/mL human FN (R&D Systems, Minneapolis, MN 55413, cat. no. 1918-FN) in 1×PBS (0.01M phosphate buffer and 0.154M NaCl, pH 7.4). Plates were then washed 3 times with Wash Buffer (1× Tris Buffered Saline containing 0.05% Tween20), blocked with 2% BSA in 1×TBS for 2 hours at room temperature (RT). […] Isotype control antibody (Control Ab; Ms IgG2a EMD Millipore Corp, Billerica, MA, cat. no. PP102) was used to normalize data across different assay runs. […] Following 1 hour at RT, the wells were washed 3 times, incubated with biotinylated Anti-6×His-Tag Ab (Invitrogen, Carlsbad, CA, cat. no. MAI-21315-BTIN) at 1:1000 in Standard Diluent for 1 hour, washed 3 times, incubated for 30 minutes with poly-HRP Streptavidin (Thermo Fisher Scientific, Waltham, MA, cat. no. N200), washed 4 times, incubated with TMB substrate (Thermo Fisher Scientific, Waltham, MA, cat. no. N301) for 2-5 minutes, followed by addition of ELISA Stop Solution (Invitrogen, Carlsbad, CA, cat. no. SS04). Absorbance 450 nm was measured. Data points were normalized to the isotype Control Ab values at each concentration and reported as % Absorbance 450 nm normalized to Control Ab. Non-linear regression analysis was used to fit curves (4-parameter) to the data using GraphPad Prism version 9.0.2 (GraphPad Software, LLC, San Diego, CA).

[3] = target: T2, recombinant human α5β1 integrin (rh-α5β1) (Homo sapiens, UniProt P05556+P08648); experiment: Plate-based ELISA reactivity to rh-α5β1; type: binding; settings: selected for further characterization among α5 specific hybridomas (28 selected)
T2 construct: purchased R&D Systems 3230-A5
Method: (§1) The 249 positive hybridoma supernatants selected as described in Example 1 were screened for reactivity to rh-α5β1 in a plate-based ELISA. Immulon4 HBX ELISA 96-well plates (Thermo Fisher Scientific, Waltham, MA, cat. no. 3855) were coated with rh-α5β1 (R&D Systems, Minneapolis, MN 55413, cat. no. 3230-A5), at 1 μg/mL in PBS supplemented with 0.5 mM MgCl2, MnCl2 and CaCl2 and incubated overnight at 4° C. Plates were washed 3 times with Wash Buffer (1× Tris Buffered Saline containing 0.05% Tween20), blocked with 2% BSA in 1×TBS (made from 10× Thermo Scientific Blocker BSA (10×) in TBS; Thermo Fisher Scientific, Waltham, MA, cat. no. 37520) for 2 hours at room temperature (RT) then incubated with hybridoma supernatants diluted 1:10 with Standard Diluent (2% BSA, 1×TBS, 0.05% Tween20). Following a 1 hour incubation at RT, wells were washed 3 times, incubated with biotinylated goat anti-mouse secondary antibody at 1:8000 dilution (Invitrogen, Carlsbad, CA, cat. no. 62-6540) for 1 hour, washed 3 times, then incubated for 30 minutes with poly-HRP Streptavidin (Thermo Fisher Scientific, Waltham, MA, cat. no. N200), washed 4 times, incubated with TMB (Thermo Fisher Scientific, Waltham, MA, cat. no. N301) for 5-10 minutes, followed by addition of ELISA Stop Solution (Invitrogen, Carlsbad, CA, cat. no. SS04). Absorbance 450 nm was measured.

[4] = target: rh-α5β1 (Homo sapiens, UniProt P05556+P08648); experiment: Competition binding studies by Biolayer Interferometry (epitope groups); settings: for Response (nm) / % Response: secondary mAb pre-mixed with 20 nM rh-α5β1; for % Response: relative to antigen alone; for epitope group: two epitope groups among 6 antibodies
Method: Epitope analysis via competition binding studies was performed using Biolayer Interferometry (BLI) on the 6 antibodies selected as described in Example 5. The anti-α5β1 FN blocking antibodies A2-7A05, C-14D12 and A-15B08 were immobilized on sensors and incubated with each of the other antibodies that had been preincubated with rh-α5β1, to determine whether this antibody-antigen association prevents or allows binding to the antibody on the sensor. The magnitude of observed binding (response) was compared to binding of antigen alone under the same conditions. If the overall response was greater than 120% of antigen binding alone, then the antibodies can pair with each other. If response was less than 80% of response of antigen binding alone, then the antibodies block each other. The protocol was as follows: preincubate the panel of antibodies with antigen (1 hr). Equilibrate the sensor (30 seconds (s))-->Load lead Ab on the sensor (700s)--->Quench (480s)--->Read baseline (480s)-->measure preincubated Ab+Ag association with loaded sensor (600s).

[5] = target: T3, recombinant human α5β1 integrin (rh-α5β1; R&D Systems, cat. no. 3230-A5) (human, UniProt P08648 42-995; P05556 21-728); experiment: ELISA, coated rh-α5β1, supernatant 1:10
T3 construct: bought recombinant heterodimer
Method: Plates were washed 3 times with Wash Buffer (1× Tris Buffered Saline containing 0.05% Tween20), blocked with 2% BSA in 1×TBS (made from 10× Thermo Scientific Blocker BSA (10×) in TBS; Thermo Fisher Scientific, Waltham, MA, cat. no. 37520) for 2 hours at room temperature (RT) then incubated with hybridoma supernatants diluted 1:10 with Standard Diluent (2% BSA, 1×TBS, 0.05% Tween20). […] Absorbance 450 nm was measured.

[6] = target: T4, recombinant mouse α5β1 (rm-α5β1) (Mus musculus, UniProt P09055+P11688); experiment: Plate-based ELISA cross-reactivity to rm-α5β1; type: binding; settings: hybridoma supernatant diluted 1:10; plate coated with rm-α5β1
T4 construct: purchased R&D Systems 7728-A5
Method: as §1
In addition, hybridomas were tested for cross-reactivity to recombinant mouse α5β1 (rm-α5β1; R&D Systems, Minneapolis, MN 55413; cat. no. 7728-A5) using the same protocol as above except that the plates were coated with rm-α5β1.

Chain of rh-α5β1 (P08648 42-894 limits assumed): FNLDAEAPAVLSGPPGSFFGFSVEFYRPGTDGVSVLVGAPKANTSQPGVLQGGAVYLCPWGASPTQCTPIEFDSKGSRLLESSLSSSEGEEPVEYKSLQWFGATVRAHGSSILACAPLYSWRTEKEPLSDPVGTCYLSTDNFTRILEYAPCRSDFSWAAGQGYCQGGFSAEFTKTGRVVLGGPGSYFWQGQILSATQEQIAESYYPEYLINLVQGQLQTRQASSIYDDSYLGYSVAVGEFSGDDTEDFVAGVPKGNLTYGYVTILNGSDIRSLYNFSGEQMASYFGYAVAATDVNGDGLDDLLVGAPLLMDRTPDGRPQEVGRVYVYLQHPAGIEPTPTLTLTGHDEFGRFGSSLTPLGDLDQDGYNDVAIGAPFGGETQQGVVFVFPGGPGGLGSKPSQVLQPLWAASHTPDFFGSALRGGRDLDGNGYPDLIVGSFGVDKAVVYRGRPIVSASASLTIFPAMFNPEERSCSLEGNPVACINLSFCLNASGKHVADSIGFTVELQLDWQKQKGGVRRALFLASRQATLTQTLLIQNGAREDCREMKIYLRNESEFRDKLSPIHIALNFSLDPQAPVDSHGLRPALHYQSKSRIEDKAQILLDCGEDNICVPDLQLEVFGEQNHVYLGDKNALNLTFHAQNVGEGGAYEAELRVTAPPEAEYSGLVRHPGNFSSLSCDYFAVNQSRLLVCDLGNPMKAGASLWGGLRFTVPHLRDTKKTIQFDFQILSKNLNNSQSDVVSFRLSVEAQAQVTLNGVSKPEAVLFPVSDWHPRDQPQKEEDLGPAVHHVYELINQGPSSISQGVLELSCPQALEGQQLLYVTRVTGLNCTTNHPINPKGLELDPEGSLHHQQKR
Chain of rh-α5β1 (P08648 895-995 limits assumed): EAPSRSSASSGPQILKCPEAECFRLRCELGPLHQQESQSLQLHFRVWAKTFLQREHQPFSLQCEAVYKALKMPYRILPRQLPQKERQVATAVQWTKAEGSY
Chain of rh-α5β1 (P05556 21-728 limits assumed): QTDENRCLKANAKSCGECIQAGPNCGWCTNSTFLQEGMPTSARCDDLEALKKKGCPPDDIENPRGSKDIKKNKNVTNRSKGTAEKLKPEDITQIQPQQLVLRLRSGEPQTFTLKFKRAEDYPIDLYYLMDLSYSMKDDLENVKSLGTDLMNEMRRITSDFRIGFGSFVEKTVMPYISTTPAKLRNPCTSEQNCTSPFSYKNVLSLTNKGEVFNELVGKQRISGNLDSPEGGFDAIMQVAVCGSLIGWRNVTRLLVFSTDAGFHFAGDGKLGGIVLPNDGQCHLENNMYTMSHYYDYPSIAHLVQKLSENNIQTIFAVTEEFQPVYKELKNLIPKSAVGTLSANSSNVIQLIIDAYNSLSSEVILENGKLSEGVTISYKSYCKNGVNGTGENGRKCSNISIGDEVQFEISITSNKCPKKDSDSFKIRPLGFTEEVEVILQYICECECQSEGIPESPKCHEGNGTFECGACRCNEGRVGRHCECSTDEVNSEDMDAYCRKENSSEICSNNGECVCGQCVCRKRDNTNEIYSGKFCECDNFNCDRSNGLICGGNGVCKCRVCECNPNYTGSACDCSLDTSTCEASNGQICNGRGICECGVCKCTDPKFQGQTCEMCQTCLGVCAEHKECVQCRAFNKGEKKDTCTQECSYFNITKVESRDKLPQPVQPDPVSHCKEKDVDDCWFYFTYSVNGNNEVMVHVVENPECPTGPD
T1 sequence (P08648 42-995 limits assumed, form in doubt, chain 1 of 2): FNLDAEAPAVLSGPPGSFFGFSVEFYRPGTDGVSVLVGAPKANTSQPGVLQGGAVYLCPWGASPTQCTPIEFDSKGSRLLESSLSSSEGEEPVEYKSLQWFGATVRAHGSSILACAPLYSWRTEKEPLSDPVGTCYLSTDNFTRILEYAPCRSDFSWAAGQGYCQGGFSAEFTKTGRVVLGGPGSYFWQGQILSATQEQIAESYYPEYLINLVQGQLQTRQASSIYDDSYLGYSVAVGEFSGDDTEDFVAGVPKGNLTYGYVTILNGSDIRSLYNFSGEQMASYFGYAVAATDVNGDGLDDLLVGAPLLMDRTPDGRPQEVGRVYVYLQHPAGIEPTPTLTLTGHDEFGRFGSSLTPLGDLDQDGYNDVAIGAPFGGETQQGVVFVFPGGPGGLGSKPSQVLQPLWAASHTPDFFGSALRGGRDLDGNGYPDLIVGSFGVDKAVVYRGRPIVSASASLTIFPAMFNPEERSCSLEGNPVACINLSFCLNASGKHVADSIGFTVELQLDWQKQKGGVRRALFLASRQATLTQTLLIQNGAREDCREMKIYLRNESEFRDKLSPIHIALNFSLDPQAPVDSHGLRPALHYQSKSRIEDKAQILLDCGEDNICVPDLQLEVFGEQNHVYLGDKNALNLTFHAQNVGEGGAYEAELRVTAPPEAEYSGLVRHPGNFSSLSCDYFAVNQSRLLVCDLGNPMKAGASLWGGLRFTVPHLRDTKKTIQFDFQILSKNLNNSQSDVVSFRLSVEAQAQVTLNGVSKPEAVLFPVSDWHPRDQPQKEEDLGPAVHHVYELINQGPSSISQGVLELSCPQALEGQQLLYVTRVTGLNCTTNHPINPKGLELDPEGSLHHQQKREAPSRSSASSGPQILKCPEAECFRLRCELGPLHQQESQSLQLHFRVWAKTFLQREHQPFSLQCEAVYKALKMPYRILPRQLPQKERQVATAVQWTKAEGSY
T1 sequence (P05556 21-728 limits assumed, form in doubt, chain 2 of 2): as the sequence (P05556 21-728 limits assumed) above
T2 sequence (P08648 42-894 limits assumed): as the sequence (P08648 42-894 limits assumed) above
T2 sequence (P08648 895-995 limits assumed): as the sequence (P08648 895-995 limits assumed) above
T2 sequence (P05556 21-728 limits assumed): as the sequence (P05556 21-728 limits assumed) above
T4 sequence (P11688 45-898 limits assumed): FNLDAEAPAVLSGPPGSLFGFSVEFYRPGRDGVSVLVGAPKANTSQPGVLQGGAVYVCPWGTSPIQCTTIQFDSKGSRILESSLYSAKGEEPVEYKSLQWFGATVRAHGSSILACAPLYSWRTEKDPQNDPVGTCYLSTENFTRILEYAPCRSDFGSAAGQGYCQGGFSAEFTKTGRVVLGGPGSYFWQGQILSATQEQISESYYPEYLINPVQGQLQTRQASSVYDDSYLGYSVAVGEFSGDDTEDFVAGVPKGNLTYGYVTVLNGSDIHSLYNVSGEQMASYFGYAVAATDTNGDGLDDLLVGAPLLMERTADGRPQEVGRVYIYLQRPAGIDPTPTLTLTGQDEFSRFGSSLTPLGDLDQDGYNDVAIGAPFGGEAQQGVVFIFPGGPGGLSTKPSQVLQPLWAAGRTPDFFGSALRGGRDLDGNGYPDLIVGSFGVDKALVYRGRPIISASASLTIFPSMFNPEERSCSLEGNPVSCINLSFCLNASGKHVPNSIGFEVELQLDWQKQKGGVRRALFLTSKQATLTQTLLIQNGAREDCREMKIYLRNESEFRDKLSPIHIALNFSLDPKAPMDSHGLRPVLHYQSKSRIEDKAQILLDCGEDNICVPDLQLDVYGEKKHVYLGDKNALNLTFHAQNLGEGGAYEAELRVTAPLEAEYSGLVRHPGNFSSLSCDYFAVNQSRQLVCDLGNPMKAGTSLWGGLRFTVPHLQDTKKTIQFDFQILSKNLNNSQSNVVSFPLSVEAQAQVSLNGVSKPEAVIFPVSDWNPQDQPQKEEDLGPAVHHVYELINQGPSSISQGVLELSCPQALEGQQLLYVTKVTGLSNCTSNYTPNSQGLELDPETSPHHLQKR
T4 sequence (P11688 899-999 limits assumed): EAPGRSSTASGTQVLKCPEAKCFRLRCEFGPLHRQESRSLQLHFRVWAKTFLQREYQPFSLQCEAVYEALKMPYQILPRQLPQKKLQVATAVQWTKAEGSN
T4 sequence (P09055 21-728 limits assumed): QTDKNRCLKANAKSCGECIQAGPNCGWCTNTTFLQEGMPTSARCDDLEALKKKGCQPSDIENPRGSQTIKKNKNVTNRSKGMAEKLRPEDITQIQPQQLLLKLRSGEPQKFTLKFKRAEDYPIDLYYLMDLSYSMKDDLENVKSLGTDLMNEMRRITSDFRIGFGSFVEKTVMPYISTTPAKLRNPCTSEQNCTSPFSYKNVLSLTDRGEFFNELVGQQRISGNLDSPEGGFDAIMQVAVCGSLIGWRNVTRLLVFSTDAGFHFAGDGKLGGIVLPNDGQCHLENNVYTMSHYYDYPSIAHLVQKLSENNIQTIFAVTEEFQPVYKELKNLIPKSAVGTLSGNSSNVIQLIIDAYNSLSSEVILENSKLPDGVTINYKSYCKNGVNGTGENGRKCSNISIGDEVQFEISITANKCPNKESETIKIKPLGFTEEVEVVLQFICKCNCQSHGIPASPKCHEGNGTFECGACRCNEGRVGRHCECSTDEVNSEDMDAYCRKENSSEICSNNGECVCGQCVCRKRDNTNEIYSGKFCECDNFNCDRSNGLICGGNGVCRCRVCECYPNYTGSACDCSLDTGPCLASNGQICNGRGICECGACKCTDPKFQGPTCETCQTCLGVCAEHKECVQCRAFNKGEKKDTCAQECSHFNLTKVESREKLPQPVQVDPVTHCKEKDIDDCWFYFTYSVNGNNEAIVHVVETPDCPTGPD
T3 sequence (P08648 42-995 limits assumed, form in doubt, chain 1 of 2): as the sequence (P08648 42-995 limits assumed, form in doubt, chain 1 of 2) above
T3 sequence (P05556 21-728 limits assumed, form in doubt, chain 2 of 2): as the sequence (P05556 21-728 limits assumed) above

Molecule | Kd [1] | koff [1] | kon [1] | % Max Inhibition [2] | Selected Human α5 Specific [3] | Response (nm) ([4]; immobilized mAb A2-7A05) | % Response ([4]; immobilized mAb A2-7A05) | Response (nm) ([4]; immobilized mAb A-15B08) | % Response ([4]; immobilized mAb A-15B08) | Response (nm) ([4]; immobilized mAb C-14D12) | % Response ([4]; immobilized mAb C-14D12) | epitope group [4] | also measured
A-15B08 (antibody, V domains shown, mouse hybridoma antibody; also called A-15B08 (hybridoma)) VH: QVQLKESGPGLVAPSQSLSITCTISGFSLTSYGVHWVRQPPGKGLEWLVVIWSDGSTTYNSTLKSRLSISKDNSKSQVFFKMNSLQTDDTAMYYCARHYDYDGDWFAYWGQGTLVTVSA VL: QIVLTQSPAIMSASLGERVTMTCTASSRVSSNSLHWYQQKPGSSPKLWIYSTSNLASGVPARFSGSGSGTSYSLTISSMEAEDAATYYCHQYLRSPPTFGGGTKLEIK | 1.31 nM | 0.000431 s⁻¹ | 328000 M⁻¹ s⁻¹ | 96% |  |  |  |  |  |  |  |  | 
A2-5D10: anti-α5β1 antibody, VH SEQ ID NO:51, VL SEQ ID NO:52 (antibody, V domains shown, A2-5D10 VH Sequence; A2-5D10 VL Sequence) VH: QVQLKESGPGLVAPSQSLSITCTISGFSLTSYGVHWVRQPPGKGLEWLVVIWSDGSTTYNSTLKSRLSISKDNSKSQVFLKMNSLQTDDTAMYYCARHYDYDGDWFAYWGQGTLVTVSA VL: QILLTQSPAIMSASLGERVTMTCTASSSVSSRCLHWYQQKPGSSPKLWIYSTSNLASGVPARFRGSGSGTSYSLTISSMEAEDAATYYCHQYYRSPPTFGGGTKLEIK |  |  |  |  | Yes | 0.17 nm | 448.38% | 0.22 nm | 106.82% | 0.24 nm | 106.12% | second group | binding of rh-α5β1 complexed with antibody to A2-7A05 on the sensor ([4]; antibody preincubated with rh-α5β1, A2-7A05 immobilized on sensor): able to bind
C-14D12 (antibody, V domains shown, mouse hybridoma antibody; also called C-14D12 (hybridoma)) VH: QVQLKESGPDLVAPSQSLSITCTVSGFSLTDYGVHWVRQPPGKGLEWLVVIWSDGSTTYNSALKSRLSITKDTSKRQVFLKMNSLQTDDTAMYYCARHAPSFIRYGSRYDALDYWGQGTSVTVSS VL: QIVLTQSPAIMSASLGERVTLTCTASSSVTSSFLHWYQQKPGSSPKLWIYSTSNLASGVPARFSGSGSGTSYSLTISSMEAEDAATYYCHQYHRSPPTFGGGTKLEIK | 0.379 nM | 9.94e-05 s⁻¹ | 263000 M⁻¹ s⁻¹ | 96% |  |  |  |  |  |  |  |  | 
A2-3B06 (antibody, V domains shown, mouse hybridoma antibody) VH: QVQLKESGPGLVAPSQSLSITCTISGFSLTTYGVHWVRQPPGKGLEWLVVIWSDGSTTYNSALKSRLNITKDNSKSQVFLKMNSLQTDDTAMYYCVRHGGLLRRDAMDYWGQGTSVTVSS VL: QIVLTQSPAIMSASLGERVTMTCTASSSVSSNSFHWYQQKPGSSPKLWLYSTSNLASGVPARFSGSGSGTSYSLTISSMEAEDAATYYCHQYLRSPPTFGGGTKLEIK | 4.74 nM | 0.00137 s⁻¹ | 289000 M⁻¹ s⁻¹ | 93% |  |  |  |  |  |  |  |  | Absorbance 450 nm [5]: 2.03
A-3A08: hybridoma clone positive on K562 cells (antibody, V domains shown) VH: QVQLKESGPGLVAPSQSLSITCTISGFSLTTYGVHWVRQPPGKGLEWLVVIWSDGSTTYNSALKSRLNITKDNSKSQVFLKMNSLQTDDTAMYYCVRHGGLLRRDAMDYWGQGTSVTVSS VL: QIVLTQSPAIMSASLGERVTMTCTASSSVSSNSFHWYQQKPGSSPKLWLYSTSNLASGVPARFSGSGSGTSYSLTISSMEAEDAATYYCHQYLRSPPTFGGGTKLEIK |  |  |  |  |  |  |  |  |  |  |  |  | Absorbance 450 nm Mouse α5β1 [6]: 0.6708
A2-7F01: anti-α5β1 antibody, VH SEQ ID NO:91, VL SEQ ID NO:92 (antibody, V domains shown, A2-7F01 VH Sequence; A2-7F01 VL Sequence) VH: QVQLQQPGAELVKPGASVKLSCKASGYTFTIYWINWVKQRPGQGLEWIGNIYPGSSSTNYNEKFKTKATLTVDTSSSTAYMQLSSLTSDDSAVYYCAITGTGGFAYWGQGTLVTVSA VL: ENVLTQSPAIMSASLGEKVTMSCRASSSVNYMYWYQQKSDASPKLWIYFTSSLAPGVPTRFSGSGSGNSFSLTISSMEGEDAATYYCQQLTGSPFTFGSGTRLEIK |  |  |  |  | Yes | −0.17 nm | −472.70% | 0.29 nm | 142.59% | 0.30 nm | 133.09% | one group | binding of rh-α5β1 complexed with antibody to A-15B08 on the sensor ([4]; antibody preincubated with rh-α5β1, A-15B08 immobilized on sensor): able to bind; binding of rh-α5β1 complexed with antibody to C-14D12 on the sensor ([4]; antibody preincubated with rh-α5β1, C-14D12 immobilized on sensor): able to bind
